Common to all, as to assay: SPR; IgG covalently coupled (sNHS/EDC, printed at four densities, sodium acetate pH 4.5-5.0) on a carboxymethyldextran prism (IBIS MX96 array); FcγR injected as analyte, eight part threefold dilution series generally starting between 18 and 41 µM; running buffer PBS + 0.01% BSA + Tween 20; global kinetic analysis, 1:1 model; two experiments with different preparations of FcγR
(In general: SPR reads the build-up and loss of mass on a sensor chip optically.)

For assay [1], the target named is recombinant monoclonal rhesus macaque IgG1 (MM IgG1), anti-CD8α (rhesus macaque (Macaca mulatta)).
The target of assay [2] is recombinant monoclonal rhesus macaque IgG2 (MM IgG2), anti-CD8α (rhesus macaque (Macaca mulatta)).
Assay [3] addresses recombinant monoclonal rhesus macaque IgG3 (MM IgG3), anti-CD8α (rhesus macaque (Macaca mulatta)).
In assay [4] the target is recombinant monoclonal rhesus macaque IgG4 (MM IgG4), anti-CD8α (rhesus macaque (Macaca mulatta)).

The results in this text go back to PMC5153528.

What is called pKd is the negative decadic logarithm of the Kd, by convention in mol/L.

pKd: −log10 of the molar value. Values joined by “and” are separate entries in the source; they are usually repeats but may differ in a detail not shown here. Identical values can stand only once.

With “human FcγRIIIa F158 (from UniProt P08637 17-254) (receptor)”, the negative-log Kd (pKd) in assay [1] is 5.40 and 5.10; in assay [2], 4.32 and 4.82; in assay [3], 4.11 and 4.48; in assay [4] it was 4.32 and 4.77.
human FcγRIIIa V158 (receptor): the negative logarithm of the Kd (pKd) in assay [1] is 5.40 and 5.30; in assay [2], 4.68 and 4.85; in assay [3], 4.08 and 4.57; in assay [4], 4.54.
Turning to “human FcγRIIIb NA1 (from UniProt O75015 17-200) (receptor)”, the pKd in assay [1] was 4.74 and 4.85; in assay [2], 3.15 and 3.60; in assay [3], 3.15 and 3.68; in assay [4] it was 3.30 and 3.92.
In the case of “human FcγRIIIb NA2 (from UniProt O75015 17-200) (receptor)”, the negative logarithm of the Kd (pKd) in assay [1] is 4.89 and 4.82; in assay [3], 3.29 and 3.57; in assay [4], 3.14 and 3.57.
For the substance “human FcγRIIIb SH (from UniProt O75015 17-200) (receptor)”, the pKd in assay [1] is 4.82 and 5.05; in assay [2], 3.28 and 4.10; in assay [3], 3.13 and 3.46; in assay [4] it was 3.33 and 3.47.
For the substance “human FcγRIIa H131 (from UniProt P12318 34-317) (receptor)”, the pKd in assay [1] was 5.15 and 5.05; in assay [2], 4.96; in assay [3] it was 4.57 and 4.80; in assay [4] it was 4.70 and 4.64.
With human FcγRIIa R131 (receptor), the pKd in assay [1] was 4.68 and 5.05; in assay [2] it was 4.39 and 4.49; in assay [3] it was 4.60 and 4.96; in assay [4] it was 4.70 and 4.96.
Regarding “human FcγRIIb/c (from UniProt P31994 43-310) (receptor)”, the pKd was 4.28 and 4.44 in assay [1]; 4.05 and 3.90 in assay [2]; 4.34 and 4.42 in assay [3]; 4.48 and 4.49 in assay [4].
